System: MS2 coat protein
Test: apparent KD of MS2 coat protein; higher = weaker reporter binding
Details: Eterna round: R107; input ligand: theophylline 20 uM
How it was run: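 The buffer was 100 mM Tris-HCl pH 7.5 with 80 mM KCl and 4 mM MgCl2, used without or with constant ligand. In it, RNA switches transcribed on-chip from Illumina sequencing clusters were titrated with SNAP-549-labelled MS2 coat protein in twofold steps from 0.7 or 1.5 nM to 3 µM. Apparent KD for each design is the median of its normalised cluster binding-curve fits.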

Point of comparison: “UGUAUAUACGGAAGGAGCGUGUAAGAUUAAGAACAUGAGGAUCACCCAUGUUUUAAGGGAACACAGGUAGGUCGCCGUAUAUAUG [11.O]”, “apparent KD of MS2 coat protein” value 14.1 nM. Against it:
- AAUUUAAACGGAAGGAGCGUCACUUAAUAUCAACAUGAGGAUCACCCAUGUACGGGUUGUAGACAGGUAGGUCGCCGUCAUUUGA [#15 Same State - Arginine B] — 5.3-fold higher, 74.5 nM
- GACCUUAUCUGAAGGAGCGAGGUAAAUAGGGUUGAGCAUACAUGAGGAUCACCCAUGUGGCCUCAGGUAGGUCGCAGAUAAGACA [Exclusion Arginine B GF29] — 22-fold higher, 308 nM
- AAAGGUCGCAAUAAAUCUCCUACAUGUGAAGGAGCGCGCGAAAGCGCAGGUAGGUCGCACAUGAGGAUCACCCAUGUGAGCGACC [MAT - Exclusion Arginine A - Mod of Eli - D3] — within 1.5-fold, 14.5 nM
- AAUAACUUGAGGAUCACCCAAGUAAAAGAUACCAGAGUGAUGAUCCUCCCUUGGCAGCUUAACGCUGAUUGAUUACAAUCAGCGA — 13-fold higher, 182 nM
- UAUAUAGAAGGAUGUCAUAUAGAUGCAGAAGGAGCGUAGGAAACUACAGGUAGGUCGCUGAGGUACAUGAGGAUCACCCAUGUAG [SSArg A #17 Slice of Pi] — 3.8-fold higher, 54 nM
- CCUAUGCAGUCGGCCGCCACUGAAAUAAAUUAUAUUACCUCAGAAACAUGAGGAUCACCCAUGUACAGGACCGGGACUGUAUAGG [Ex Tryptophan B 15] — 3.1-fold higher, 44.2 nM
- UCCUCCUCCGCAAGGAGGAGGAGUUGCGAUACCAGCACGGUAACGUGCCCUUGGCAGCGCACAUGAGGAUCACCCAUGUGGUGUU [#1 Exclusion - Theophylline A Attempt #12 (HarryS)] — 32-fold higher, 455 nM
- GCUGCAGCUACGGCCGCCACUGUUACGUGAGACAUGAGGAUCACCCAUGUUGAUGUUUUACGGUAUAGGACCGGGUAGUUGUAGU [E 1.0] — within 1.5-fold, 11.8 nM
- AAACUAACGAGAGGAAACCUCGAGGGUGAUACCAGCACAUAAGGGUGCCCUUGGCAGCACCGACGUACAUGAGGAUCACCCAUGU [Gexegees] — 11-fold higher, 154 nM
- AGUACAUGAGGAUCACCCAUGUACCAUGAUACCAGACAUGAAAAUGUCCCUUGGCAGCGUGGGUGAGGCAUCCGAAAGGAUGCCC [#05 SameState-TheophyllineA] — 13-fold higher, 185 nM
- GCCUAGCAUCGAAGGAGCGCUGGUGAAACUGACUAAUAUACAUGAGGAUCACCCAUGUGCUAGCAGGUAGGUCGCGAUGCUAGGC [SSAB NP+V+V2 #11] — 1.9-fold higher, 27.2 nM
- CGAAAGCACAUGGGUUGCUUUCGACUGGAAGGAGCGAGCGAAAGCUCAGGUAGGUCGCCAGAAACAUGAGGAUCACCCAUGUAAU [(A)''-(M)'-(A)'(Arg1)-(Arg2)-(M1)-(M2)_Design10] — 1.9-fold higher, 27.4 nM
- UAGACGGCCGGAAGGAGCGGUACAUGAGGAUCACCCAUGUAUCCCUGGGCAUCCGUAGUGUGCCAGGUAGGUCGCCGGUUGCGGG [XArg-B21] — 1.8-fold higher, 25.2 nM
- CACAUGAGGAUCACCCAUGUCUGAACUGAAGGAGCGCUAAACAAGGCAGGUAGGUCGCGGAAUCCCGGGUGCAUAUGCACCCGGG [9.aA] — 1.6-fold higher, 23.2 nM
- AGCGGAACGGAAGGGUCCCGAAAUUGUGAUACCAGCCUUGAAUCCGGCCCUUGGCAGCACAUGAGGAUCACCCAUGUACUGCGGU [Arimaed] — within 1.5-fold, 20.7 nM
- CUAUAAGUACCGGUCCUCAGAUCCUCAUGACGAGGACCGGUACGGCCGCCACUCGAAACAUGAGGAUCACCCAUGUAAUAAUAUU [Brourdmod10] — 2.2-fold higher, 31.5 nM
- AGUCUUAAAGGAAGGAGCGCAAUCAUAACAUGAGGAUCACCCAUGUCGAGGUGAGGGUCAUUGCAGGUAGGUCGCCUUACUAAGA [Same State - Arginine B (Freestyle 7)] — 6.3-fold higher, 88.7 nM
- CCUAUGCAGUCGGCCGCCACUGAACAUGAGGAUCACCCAUGUUUUUAUAAAUAUGGUCCUAUAAUCAGGACCGGGACUGUAUAGG [Ex Tryptophan B 9] — 4.2-fold higher, 59.7 nM

Same assay, conditions: Eterna round: R107; input ligand: theophylline 2 mM

Point of comparison: “CCUAUGCAGUCGGCCGCCACUGAAAUAAAUUAUAUUACCUCAGAAACAUGAGGAUCACCCAUGUACAGGACCGGGACUGUAUAGG [Ex Tryptophan B 15]”, “apparent KD of MS2 coat protein” value 26.2 nM. Against it:
- GACUAUAUGAUAUGUCAGAAAUCCUCGAAACGAGGACCGGUACGGCCGCCACUCGAGUGAUAAACAUGAGGAUCACCCAUGUAAA [Tryp A Ex t2] — within 1.5-fold, 27.7 nM
- UGAGUUAGACAAAAGUCUAGCUCUGGUGAAGGAGCGUCCGAAAGGACAGGUAGGUCGCACCACCUGAGGAUCACCCGGGUUCCUA [ArgAS 13 #OpenEnded #AlternativeMS2] — 38-fold higher, 991 nM
- AUAAUGAGUGGUGGAUAGGUGAUCCUCUUACGAGGACCGGUACGGCCGCCACUCGAUAACAUGAGGAUCACCCAUGUAAUAAUAA [|T'-M'-Trp-Ms2|_Design19] — within 1.5-fold, 18.9 nM
- AGCACUGUGACGGCCGCCACUACAUAAAUAGGGUGGUCAGGUUCAUUACAUGAGGAUCACCCAUGUAGGACCGGGUCUCAGUGCA [Omei Trp Exc B A v7] — 2.4-fold lower, 11 nM
- ACACGAAGCUGAAGGAGCGUGGUAUAAAUUUUUACAUGAGGAUCACCCAUGUUUCAUCAAUCACAGGUAGGUCGCAGAUGCGUGA [JR_SSArginiB_Sub014] — within 1.5-fold, 20.2 nM
- AACAACAAGGGAAGGAGCGCGAAUAAUAGACAUGAGGAUCACCCAUGUAUCAUGGGAUUAACGCAGGUAGGUCGCCCACAAACAA [#07 Exclusion - Arginine B] — 5.8-fold higher, 152 nM
- UGUAUGGACUGAAGGAGCGGGUUGAUAACUUGAGGAUCACCCAGGUAAAAGGCGAAAGCCGCCCAGGUAGGUCGCAGUCCAUACU — 2.4-fold higher, 61.7 nM
- GACCUUAUCUGAAGGAGCGAGGUAAAUAGGGAUGAGCAUACAUGAGGAUCACCCAUGUGGCCUCAGGUAGGUCGCAGAUGAGAUU [Exclusion Arginine B GF27] — 5.7-fold higher, 149 nM
- UAAUGCAGGUCGGCCGCCACUACACACAUGAGGAUCACCCAUGUAGUUACUGGGUGAAGUGGCAGUAGGACCGGGACCUGCAUAC [Brourdmod04] — 32-fold higher, 833 nM
- CGUAUUACGAAAGUAGUACGUAGUGUUCGACGAGGACCGGUACGGCCGCCACUCGGACAUGAGGAUCACCCAUGUAGCGAAAGCU [Tryptophan A 24] — 9.4-fold higher, 247 nM
- UCGCUCGCCGAAAGGCGAGCGAGUUGCGAUACCAGCCCGGAAACGGGCCCUUGGCAGCGCACAUGAGGAUCACCCAUGUCAUGUU [#1 Exclusion - Theophylline A Attempt #3 (HarryS)] — 2.2-fold higher, 58.7 nM
- CCAUGCAGGUCGGCCGCCACUACACACAUGAGGAUCACCCAUGUAGUUACUGGGUGAAGUGGCAGUAGGACCGGGACCUGCAUAU [Brourdmod11] — 19-fold higher, 504 nM
- AAUUUAAACGGAAGGAGCGUCACUUAAUAUCAACAUGAGGAUCACCCAUGUACGGGUUGUAGACAGGUAGGUCGCCGUCAUUUGA [#15 Same State - Arginine B] — 2.5-fold higher, 64.5 nM
- GACCUUAUCUGAAGGAGCGAGGUAAAUAGGGUUGAGCAUACAUGAGGAUCACCCAUGUGGCCUCAGGUAGGUCGCAGAUAAGACA [Exclusion Arginine B GF29] — 2.4-fold higher, 63.4 nM
- AAAGGUCGCAAUAAAUCUCCUACAUGUGAAGGAGCGCGCGAAAGCGCAGGUAGGUCGCACAUGAGGAUCACCCAUGUGAGCGACC [MAT - Exclusion Arginine A - Mod of Eli - D3] — 2-fold lower, 13.1 nM
- AAUAACUUGAGGAUCACCCAAGUAAAAGAUACCAGAGUGAUGAUCCUCCCUUGGCAGCUUAACGCUGAUUGAUUACAAUCAGCGA — 4.6-fold higher, 121 nM
- UAUAUAGAAGGAUGUCAUAUAGAUGCAGAAGGAGCGUAGGAAACUACAGGUAGGUCGCUGAGGUACAUGAGGAUCACCCAUGUAG [SSArg A #17 Slice of Pi] — 1.7-fold higher, 45.5 nM
- UCCUCCUCCGCAAGGAGGAGGAGUUGCGAUACCAGCACGGUAACGUGCCCUUGGCAGCGCACAUGAGGAUCACCCAUGUGGUGUU [#1 Exclusion - Theophylline A Attempt #12 (HarryS)] — 14-fold higher, 379 nM
- GCUGCAGCUACGGCCGCCACUGUUACGUGAGACAUGAGGAUCACCCAUGUUGAUGUUUUACGGUAUAGGACCGGGUAGUUGUAGU [E 1.0] — 2.5-fold lower, 10.3 nM
- AGUACAUGAGGAUCACCCAUGUACCAUGAUACCAGACAUGAAAAUGUCCCUUGGCAGCGUGGGUGAGGCAUCCGAAAGGAUGCCC [#05 SameState-TheophyllineA] — within 1.5-fold, 30.5 nM

— the supplement of paper PMC9170038
